Results: patent US20150344570A1 (published 2015)

B1: GpH7-A5/GpH7-B3 variant E333_08L/GpL16-k0 (antibody, human IgG1, kappa)
heavy 1: not shown
heavy 2: not shown
light: DIVMTQSPLSLPVTPGEPASISCQASESLVHSNRNTYLHWYLQKPGQSPQLLIYKVSNRFSGVPDRFSGSGSGTDFTLKISRVEAEDVGVYYCSQNTHVPPTFGQGTKVEIERTVAAPSVFIFPPSDEQLKSGTASVVCLLNNFYPREAKVQWKVDNALQSGNSQESVTEQDSKDSTYSLSSTLTLSKADYEKHKVYACEVTHQGLSSPVTKSFNRGEC
notes: heterodimerized IgG1, mutation in one H chain only; also called He Ab
B2: GpH7-A5/GpH7-B3 variant S239_14T/GpL16-k0 (antibody, human IgG1, kappa)
heavy 1: not shown
heavy 2: not shown
light: B1 light
notes: as for B1
B3: GpH7-A5/GpH7-B3 variant H268_11K/GpL16-k0 (antibody, human IgG1, kappa)
heavy 1: not shown
heavy 2: not shown
light: B1 light
notes: as for B1
B4: GpH7-A5/GpH7-B3 variant T335_12R/GpL16-k0 (antibody, human IgG1, kappa)
heavy 1: not shown
heavy 2: not shown
light: B1 light
notes: as for B1
B5: GpH7-A5/GpH7-B3 variant Y296_04F/GpL16-k0 (antibody, human IgG1, kappa)
heavy 1: not shown
heavy 2: not shown
light: B1 light
notes: as for B1
B6: GpH7-A5/GpH7-B3 variant S337_04F/GpL16-k0 (antibody, human IgG1, kappa)
heavy 1: not shown
heavy 2: not shown
light: B1 light
notes: as for B1
B7: GpH7-A5/GpH7-B3 variant Y296_10E/GpL16-k0 (antibody, human IgG1, kappa)
heavy 1: not shown
heavy 2: not shown
light: B1 light
notes: as for B1
B8: GpH7-A5/GpH7-B3 variant T335_06M/GpL16-k0 (antibody, human IgG1, kappa)
heavy 1: not shown
heavy 2: not shown
light: B1 light
notes: as for B1
B9: GpH7-A5/GpH7-B3 variant Y296_06M/GpL16-k0 (antibody, human IgG1, kappa)
heavy 1: not shown
heavy 2: not shown
light: B1 light
notes: as for B1
B10: GpH7-A5/GpH7-B3 variant T335_02A/GpL16-k0 (antibody, human IgG1, kappa)
heavy 1: not shown
heavy 2: not shown
light: B1 light
notes: as for B1
B11: GpH7-A5/GpH7-B3 variant S337_11K/GpL16-k0 (antibody, human IgG1, kappa)
heavy 1: not shown
heavy 2: not shown
light: B1 light
notes: as for B1
B12: GpH7-A5/GpH7-B3 variant P331_08L/GpL16-k0 (antibody, human IgG1, kappa)
heavy 1: not shown
heavy 2: not shown
light: B1 light
notes: as for B1
B13: GpH7-A5/GpH7-B3 variant E333_15Y/GpL16-k0 (antibody, human IgG1, kappa)
heavy 1: not shown
heavy 2: not shown
light: B1 light
notes: as for B1
B14: GpH7-A5/GpH7-B3 variant E333_09D/GpL16-k0 (antibody, human IgG1, kappa)
heavy 1: not shown
heavy 2: not shown
light: B1 light
notes: as for B1
B15: GpH7-A5/GpH7-B3 variant H268_12R/GpL16-k0 (antibody, human IgG1, kappa)
heavy 1: not shown
heavy 2: not shown
light: B1 light
notes: as for B1
B16: GpH7-A5/GpH7-B3 variant Q295_10E/GpL16-k0 (antibody, human IgG1, kappa)
heavy 1: not shown
heavy 2: not shown
light: B1 light
notes: as for B1
B17: GpH7-A5/GpH7-B3 variant P331_09D/GpL16-k0 (antibody, human IgG1, kappa)
heavy 1: not shown
heavy 2: not shown
light: B1 light
notes: as for B1
B18: GpH7-A5/GpH7-B3 variant N325_15Y/GpL16-k0 (antibody, human IgG1, kappa)
heavy 1: not shown
heavy 2: not shown
light: B1 light
notes: as for B1
B19: GpH7-A5/GpH7-B3 variant T335_05P/GpL16-k0 (antibody, human IgG1, kappa)
heavy 1: not shown
heavy 2: not shown
light: B1 light
notes: as for B1
B20: GpH7-A5/GpH7-B3 variant P331_18N/GpL16-k0 (antibody, human IgG1, kappa)
heavy 1: not shown
heavy 2: not shown
light: B1 light
notes: as for B1
B21: GpH7-A5/GpH7-B3 variant Y296_07I/GpL16-k0 (antibody, human IgG1, kappa)
heavy 1: not shown
heavy 2: not shown
light: B1 light
notes: as for B1
B22: GpH7-A5/GpH7-B3 variant N325_14T/GpL16-k0 (antibody, human IgG1, kappa)
heavy 1: not shown
heavy 2: not shown
light: B1 light
notes: as for B1
B23: GpH7-A5/GpH7-B3 variant I336_18N/GpL16-k0 (antibody, human IgG1, kappa)
heavy 1: not shown
heavy 2: not shown
light: B1 light
notes: as for B1
B24: GpH7-A5/GpH7-B3 variant S324_04F/GpL16-k0 (antibody, human IgG1, kappa)
heavy 1: not shown
heavy 2: not shown
light: B1 light
notes: as for B1
B25: GpH7-A5/GpH7-B3 variant Q295_06M/GpL16-k0 (antibody, human IgG1, kappa)
heavy 1: not shown
heavy 2: not shown
light: B1 light
notes: as for B1
B26: GpH7-A5/GpH7-B3 variant P331_13S/GpL16-k0 (antibody, human IgG1, kappa)
heavy 1: not shown
heavy 2: not shown
light: B1 light
notes: as for B1
B27: GpH7-A5/GpH7-B3 variant S337_06M/GpL16-k0 (antibody, human IgG1, kappa)
heavy 1: not shown
heavy 2: not shown
light: B1 light
notes: as for B1
B28: GpH7-A5/GpH7-B3 variant N325_10E/GpL16-k0 (antibody, human IgG1, kappa)
heavy 1: not shown
heavy 2: not shown
light: B1 light
notes: as for B1
B29: GpH7-A5/GpH7-B3 variant L234_04F/GpL16-k0 (antibody, human IgG1, kappa)
heavy 1: not shown
heavy 2: not shown
light: B1 light
notes: as for B1
B30: GpH7-A5/GpH7-B3 variant S337_02A/GpL16-k0 (antibody, human IgG1, kappa)
heavy 1: not shown
heavy 2: not shown
light: B1 light
notes: as for B1
B31: GpH7-A5/GpH7-B3 variant K326_12R/GpL16-k0 (antibody, human IgG1, kappa)
heavy 1: not shown
heavy 2: not shown
light: B1 light
notes: as for B1
B32: GpH7-A5/GpH7-B3 variant T335_01G/GpL16-k0 (antibody, human IgG1, kappa)
heavy 1: not shown
heavy 2: not shown
light: B1 light
notes: as for B1
B33: GpH7-A5/GpH7-B3 variant P331_14T/GpL16-k0 (antibody, human IgG1, kappa)
heavy 1: not shown
heavy 2: not shown
light: B1 light
notes: as for B1
B34: GpH7-A5/GpH7-B3 variant P331_02A/GpL16-k0 (antibody, human IgG1, kappa)
heavy 1: not shown
heavy 2: not shown
light: B1 light
notes: as for B1
B35: GpH7-A5/GpH7-B3 variant S337_19Q/GpL16-k0 (antibody, human IgG1, kappa)
heavy 1: not shown
heavy 2: not shown
light: B1 light
notes: as for B1
B36: GpH7-A5/GpH7-B3 variant S337_12R/GpL16-k0 (antibody, human IgG1, kappa)
heavy 1: not shown
heavy 2: not shown
light: B1 light
notes: as for B1
B37: GpH7-A5/GpH7-B3 variant S337_03V/GpL16-k0 (antibody, human IgG1, kappa)
heavy 1: not shown
heavy 2: not shown
light: B1 light
notes: as for B1
B38: GpH7-A5/GpH7-B3 variant Y296_09D/GpL16-k0 (antibody, human IgG1, kappa)
heavy 1: not shown
heavy 2: not shown
light: B1 light
notes: as for B1

What was measured:
[1] = molecular target: T1, FcγRIIa R (FcγRIIa allotype with Arg at position 131), extracellular domain with C-terminal His tag (human, UniProt P12318 34-217); assay: SPR (Biacore), antibody captured, FcγR analyte; vs GpH7-A5/GpH7-B3/GpL16-k0 = 100
T1 construct: extracellular domain; made in FreeStyle293 cells; analyte in the Biacore assay; also called FcγRIIa type R; 2aR
T1 sequence (looked up): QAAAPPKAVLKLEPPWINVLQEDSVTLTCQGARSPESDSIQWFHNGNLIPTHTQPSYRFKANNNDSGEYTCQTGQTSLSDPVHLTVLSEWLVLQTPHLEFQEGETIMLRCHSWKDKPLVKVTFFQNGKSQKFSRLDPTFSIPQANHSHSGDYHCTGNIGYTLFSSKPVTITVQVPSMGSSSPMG
Method: (§1) The heterodimerized antibodies He Abs in which one of the H chains was introduced with an alteration were assayed for their binding activities to each activating FcγR and inhibitory FcγR according to the method described in Example 4. […] The activating FcγRs in FIGS. 26, 27, 28, and 29 are FcγRIa, FcγRIIa (R), FcγRIIa (H), and FcγRIIIa, respectively.
(§2) Analysis of interaction between objective antibody and the FcγR was carried out using Biacore T100 (GE Healthcare). HBS-EP+ (GE Healthcare) was used as the running buffer, and the measurement temperature was set to 25° C. Chips produced by immobilizing the antigen peptide by the amine coupling method to a Series S Sencor Chip CM5 (GE Healthcare), or alternatively, chips produced by allowing preliminarily biotinylated antigen peptides to interact with and immobilize onto a Series S Sensor Chip SA (certified) (GE Healthcare) were used. Antibodies of interest were captured onto an antigen peptide-immobilized chip, and allowed to interact to each FcγR diluted with running buffer. To regenerate and repeatedly use the chip, the antibodies captured on the chip were washed off by reacting 10 mM glycine-HCl, pH 1.5.

[2] = molecular target: T2, FcγRIIb, extracellular domain with C-terminal His tag (human, UniProt P31994 43-217); assay: as above
T2 construct: extracellular domain; made in FreeStyle293 cells; analyte in the Biacore assay; also called 2b; FcgRIIb
T2 sequence (looked up): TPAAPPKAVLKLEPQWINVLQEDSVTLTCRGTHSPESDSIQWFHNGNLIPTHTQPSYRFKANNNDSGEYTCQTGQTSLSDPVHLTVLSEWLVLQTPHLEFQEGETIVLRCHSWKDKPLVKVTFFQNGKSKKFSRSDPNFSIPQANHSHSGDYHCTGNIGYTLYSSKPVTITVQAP
Method: as §1, §2

| Binder | He/Con_2aR [1] | He/Con_2b [2] |
| --- | --- | --- |
| B1 | 103 relative (HeCon Ab = 100) | 95 relative (HeCon Ab = 100) |
| B2 | 103 relative (HeCon Ab = 100) | 97.3 relative (HeCon Ab = 100) |
| B3 | 100 relative (HeCon Ab = 100) | 83 relative (HeCon Ab = 100) |
| B4 | 100 relative (HeCon Ab = 100) | 91.9 relative (HeCon Ab = 100) |
| B5 | 109 relative (HeCon Ab = 100) | 99.2 relative (HeCon Ab = 100) |
| B6 | 105 relative (HeCon Ab = 100) | 97.8 relative (HeCon Ab = 100) |
| B7 | 103 relative (HeCon Ab = 100) | 98 relative (HeCon Ab = 100) |
| B8 | 105 relative (HeCon Ab = 100) | 99.4 relative (HeCon Ab = 100) |
| B9 | 101 relative (HeCon Ab = 100) | 87.8 relative (HeCon Ab = 100) |
| B10 | 102 relative (HeCon Ab = 100) | 94 relative (HeCon Ab = 100) |
| B11 | 103 relative (HeCon Ab = 100) | 94.3 relative (HeCon Ab = 100) |
| B12 | 102 relative (HeCon Ab = 100) | 95.7 relative (HeCon Ab = 100) |
| B13 | 101 relative (HeCon Ab = 100) | 94.4 relative (HeCon Ab = 100) |
| B14 | 103 relative (HeCon Ab = 100) | 94.3 relative (HeCon Ab = 100) |
| B15 | 105 relative (HeCon Ab = 100) | 89.8 relative (HeCon Ab = 100) |
| B16 | 102 relative (HeCon Ab = 100) | 94.8 relative (HeCon Ab = 100) |
| B17 | 102 relative (HeCon Ab = 100) | 94.3 relative (HeCon Ab = 100) |
| B18 | 101 relative (HeCon Ab = 100) | 99.5 relative (HeCon Ab = 100) |
| B19 | 104 relative (HeCon Ab = 100) | 99.9 relative (HeCon Ab = 100) |

| Binder | He/Con_2aR [1] | He/Con_2b [2] |
| --- | --- | --- |
| B20 | 105 relative (HeCon Ab = 100) | 99.2 relative (HeCon Ab = 100) |
| B21 | 101 relative (HeCon Ab = 100) | 84.3 relative (HeCon Ab = 100) |
| B22 | 105 relative (HeCon Ab = 100) | 91.6 relative (HeCon Ab = 100) |
| B23 | 104 relative (HeCon Ab = 100) | 97.6 relative (HeCon Ab = 100) |
| B24 | 104 relative (HeCon Ab = 100) | 89.1 relative (HeCon Ab = 100) |
| B25 | 102 relative (HeCon Ab = 100) | 90.4 relative (HeCon Ab = 100) |
| B26 | 105 relative (HeCon Ab = 100) | 96.8 relative (HeCon Ab = 100) |
| B27 | 105 relative (HeCon Ab = 100) | 96.7 relative (HeCon Ab = 100) |
| B28 | 105 relative (HeCon Ab = 100) | 95.9 relative (HeCon Ab = 100) |
| B29 | 104 relative (HeCon Ab = 100) | 99.8 relative (HeCon Ab = 100) |
| B30 | 105 relative (HeCon Ab = 100) | 97.2 relative (HeCon Ab = 100) |
| B31 | 103 relative (HeCon Ab = 100) | 89.2 relative (HeCon Ab = 100) |
| B32 | 104 relative (HeCon Ab = 100) | 96.7 relative (HeCon Ab = 100) |
| B33 | 104 relative (HeCon Ab = 100) | 99.8 relative (HeCon Ab = 100) |
| B34 | 106 relative (HeCon Ab = 100) | 99.5 relative (HeCon Ab = 100) |
| B35 | 106 relative (HeCon Ab = 100) | 99.7 relative (HeCon Ab = 100) |
| B36 | 107 relative (HeCon Ab = 100) | 99.5 relative (HeCon Ab = 100) |
| B37 | 106 relative (HeCon Ab = 100) | 98.9 relative (HeCon Ab = 100) |
| B38 | 106 relative (HeCon Ab = 100) | 98.9 relative (HeCon Ab = 100) |
